According to article PMC8053116:

Target: multi-tRNA synthetase complex without ArgRS and GlnRS (human (endogenous in HEK 293T)) (UniProt P56192)
Assay: SEC; lysate of wildtype 293T cells (20 mM Tris-HCl pH 7.5, 1 mM EDTA, 150 mM NaCl, 0.1% IGEPAL CA-630) on Superdex 200 in Dulbecco's PBS; 1 ml fractions analysed by western blot; intact MSC in fractions 10-12

Chain of UniProt P56192 (P56192 whole entry, looked up, one chain of several): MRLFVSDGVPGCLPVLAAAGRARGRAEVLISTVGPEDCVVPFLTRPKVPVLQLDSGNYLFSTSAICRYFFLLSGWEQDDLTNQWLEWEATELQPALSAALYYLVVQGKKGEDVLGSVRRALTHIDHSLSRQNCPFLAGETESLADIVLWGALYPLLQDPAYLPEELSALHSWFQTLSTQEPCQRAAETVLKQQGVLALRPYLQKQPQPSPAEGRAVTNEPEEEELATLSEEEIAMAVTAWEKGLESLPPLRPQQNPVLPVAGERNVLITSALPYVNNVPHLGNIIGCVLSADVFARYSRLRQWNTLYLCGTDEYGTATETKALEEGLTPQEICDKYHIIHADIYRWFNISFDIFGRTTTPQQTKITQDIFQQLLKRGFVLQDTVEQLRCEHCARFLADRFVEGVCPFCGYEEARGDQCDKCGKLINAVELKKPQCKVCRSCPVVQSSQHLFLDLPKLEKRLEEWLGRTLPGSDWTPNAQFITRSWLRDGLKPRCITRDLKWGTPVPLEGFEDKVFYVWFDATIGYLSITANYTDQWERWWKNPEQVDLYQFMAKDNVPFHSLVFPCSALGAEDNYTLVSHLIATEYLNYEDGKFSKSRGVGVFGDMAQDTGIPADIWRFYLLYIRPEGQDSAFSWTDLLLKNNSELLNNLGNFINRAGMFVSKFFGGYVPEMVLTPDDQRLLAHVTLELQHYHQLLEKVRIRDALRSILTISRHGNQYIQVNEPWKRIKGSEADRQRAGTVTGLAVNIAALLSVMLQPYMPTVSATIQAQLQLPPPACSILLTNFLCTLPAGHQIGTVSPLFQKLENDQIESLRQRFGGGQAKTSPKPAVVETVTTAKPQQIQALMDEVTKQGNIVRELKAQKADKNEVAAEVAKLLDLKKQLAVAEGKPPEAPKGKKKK

percent of ArgRS not bound to the MSC: 40%
B1: arginyl-tRNA synthetase, full-length (enzyme)
chain: MDVLVSECSARLLQQEEEIKSLTAEIDRLKNCGCLGASPNLEQLQEENLKLKYRLNILRKSLQAERNKPTKNMINIISRLQEVFGHAIKAAYPDLENPPLLVTPSQQAKFGDYQCNSAMGISQMLKTKEQKVNPREIAENITKHLPDNECIEKVEIAGPGFINVHLRKDFVSEQLTSLLVNGVQLPALGENKKVIVDFSSPNIAKEMHVGHLRSTIIGESISRLFEFAGYDVLRLNHVGDWGTQFGMLIAHLQDKFPDYLTVSPPIGDLQVFYKESKKRFDTEEEFKKRAYQCVVLLQGKNPDITKAWKLICDVSRQELNKIYDALDVSLIERGESFYQDRMNDIVKEFEDRGFVQVDDGRKIVFVPGCSIPLTIVKSDGGYTYDTSDLAAIKQRLFEEKADMIIYVVDNGQSVHFQTIFAAAQMIGWYDPKVTRVFHAGFGVVLGEDKKKFKTRSGETVRLMDLLGEGLKRSMDKLKEKERDKVLTAEELNAAQTSVAYGCIKYADLSHNRLNDYIFSFDKMLDDRGNTAAYLLYAFTRIRSIARLANIDEEMLQKAARETKILLDHEKEWKLGRCILRFPEILQKILDDLFLHTLCDYIYELATAFTEFYDSCYCVEKDRQTGKILKVNMWRMLLCEAVAAVMAKGFDILGIKPVQRM
